Columns and labels:
[1] = target: the molecule itself; test: cryo-EM structure; apo-state WT hABCB6 in POPC:POPE (3:1) MSP2N2 nanodiscs, inward-facing, C2 symmetry, 3.6 A
[2] = target: the molecule itself; test: cryo-EM structure; hABCB6[EQ] in POPC:POPE MSP2N2 nanodiscs, incubated with 5 mM ATP-Mg2+ for 30 min at 37 C, occluded conformation, C2 symmetry, 3.5 A

Protein	binding result [1]	binding result [2]
human ABCB6 (hABCB6), wild type, C-terminal Strep-tag (natural protein, UniProt Q9NP58 1-842, looked up, ABCB6, Homo sapiens, 842-amino acid protein; theoretical MW 94 kDa; TMD0 (residues 1-244) is in the protein but obscure in the map; PDB and EMDB ids are assigned by the order of the data availability sentence; also called WT hABCB6; hABCB6-WT; not shown: Strep-tag, C-terminal, kept) MVTVGNYCEAEGPVGPAWMQDGLSPCFFFTLVPSTRMALGTLALVLALPCRRRERPAGADSLSWGAGPRISPYVLQLLLATLQAALPLAGLAGRVGTARGAPLPSYLLLASVLESLAGACGLWLLVVERSQARQRLAMGIWIKFRHSPGLLLLWTVAFAAENLALVSWNSPQWWWARADLGQQVQFSLWVLRYVVSGGLFVLGLWAPGLRPQSYTLQVHEEDQDVERSQVRSAAQQSTWRDFGRKLRLLSGYLWPRGSPALQLVVLICLGLMGLERALNVLVPIFYRNIVNLLTEKAPWNSLAWTVTSYVFLKFLQGGGTGSTGFVSNLRTFLWIRVQQFTSRRVELLIFSHLHELSLRWHLGRRTGEVLRIADRGTSSVTGLLSYLVFNVIPTLADIIIGIIYFSMFFNAWFGLIVFLCMSLYLTLTIVVTEWRTKFRRAMNTQENATRARAVDSLLNFETVKYYNAESYEVERYREAIIKYQGLEWKSSASLVLLNQTQNLVIGLGLLAGSLLCAYFVTEQKLQVGDYVLFGTYIIQLYMPLNWFGTYYRMIQTNFIDMENMFDLLKEETEVKDLPGAGPLRFQKGRIEFENVHFSYADGRETLQDVSFTVMPGQTLALVGPSGAGKSTILRLLFRFYDISSGCIRIDGQDISQVTQASLRSHIGVVPQDTVLFNDTIADNIRYGRVTAGNDEVEAAAQAAGIHDAIMAFPEGYRTQVGERGLKLSGGEKQRVAIARTILKAPGIILLDEATSALDTSNERAIQASLAKVCANRTTIVVAHRLSTVVNADQILVIKDGCIVERGRHEALLSRGGVYADMWQLQQGQEETSEDTKPQTMER	binds	–
human ABCB6 E752Q mutant (hABCB6[EQ]), C-terminal Strep-tag (natural protein, UniProt Q9NP58 1-842, looked up, ABCB6, Homo sapiens, 842-amino acid protein, with the Walker B mutation E752Q; Same construct as m1 with E752Q; Incubated with 5 mM ATP-Mg2+ (and 20 uM PPIX) before grid preparation; PDB and EMDB ids are assigned by the order of the data availability sentence; also called hABCB6 E752Q; not shown: Strep-tag, C-terminal, kept) MVTVGNYCEAEGPVGPAWMQDGLSPCFFFTLVPSTRMALGTLALVLALPCRRRERPAGADSLSWGAGPRISPYVLQLLLATLQAALPLAGLAGRVGTARGAPLPSYLLLASVLESLAGACGLWLLVVERSQARQRLAMGIWIKFRHSPGLLLLWTVAFAAENLALVSWNSPQWWWARADLGQQVQFSLWVLRYVVSGGLFVLGLWAPGLRPQSYTLQVHEEDQDVERSQVRSAAQQSTWRDFGRKLRLLSGYLWPRGSPALQLVVLICLGLMGLERALNVLVPIFYRNIVNLLTEKAPWNSLAWTVTSYVFLKFLQGGGTGSTGFVSNLRTFLWIRVQQFTSRRVELLIFSHLHELSLRWHLGRRTGEVLRIADRGTSSVTGLLSYLVFNVIPTLADIIIGIIYFSMFFNAWFGLIVFLCMSLYLTLTIVVTEWRTKFRRAMNTQENATRARAVDSLLNFETVKYYNAESYEVERYREAIIKYQGLEWKSSASLVLLNQTQNLVIGLGLLAGSLLCAYFVTEQKLQVGDYVLFGTYIIQLYMPLNWFGTYYRMIQTNFIDMENMFDLLKEETEVKDLPGAGPLRFQKGRIEFENVHFSYADGRETLQDVSFTVMPGQTLALVGPSGAGKSTILRLLFRFYDISSGCIRIDGQDISQVTQASLRSHIGVVPQDTVLFNDTIADNIRYGRVTAGNDEVEAAAQAAGIHDAIMAFPEGYRTQVGERGLKLSGGEKQRVAIARTILKAPGIILLDQATSALDTSNERAIQASLAKVCANRTTIVVAHRLSTVVNADQILVIKDGCIVERGRHEALLSRGGVYADMWQLQQGQEETSEDTKPQTMER	–	binds

— PMC8313675, “Molecular insights into the human ABCB6 transporter” (Cell Discovery, 2021)
